# Article PMC6318249, “DNA Binding and Phosphorylation Regulate the Core Structure of the NF-κB p50 Transcription Factor” (Journal of the American Society for Mass Spectrometry, 2018)
# How the values were obtained:
# [1] = biological target: Murine NF-κB p50 (39-364) S242D (murine) (UniProt P25799); test: native MS; native IM-MS of p50 (39-364) WT and Ser to Asp variants, no DNA; 100 mM NH4OAc, typically 5 μM; percentage peak areas of monomer and dimer by multi-Gaussian fitting
# [2] = biological target: Murine NF-κB p50 (39-364) S337D (murine) (UniProt P25799); test: SEC; size exclusion chromatography of p50 (39-364); monomer measured by protein staining and densitometry
# [3] = biological target: Murine NF-κB p50 (39-364) S337D (murine) (UniProt P25799); test: native MS; native IM-MS of p50 (39-364) WT and Ser to Asp variants, no DNA; 100 mM NH4OAc, typically 5 μM; percentage peak areas of monomer and dimer by multi-Gaussian fitting
# [4] = biological target: Murine NF-κB p50 (39-364) wild-type (murine) (UniProt P25799); test: as above
# [5] = biological target: p50 (35-381, Enzo Scientific) 35-381 (UniProt P19838); test: native nESI-MS, monomer:dimer, with κB DNA; settings: reference: non-phosphorylated p50 plus DNA; sites S328,S337
# [6] = biological target: Murine NF-κB p50 (39-364) S248D (murine) (UniProt P25799); test: native MS; native IM-MS of p50 (39-364) WT and Ser to Asp variants, no DNA; 100 mM NH4OAc, typically 5 μM; percentage peak areas of monomer and dimer by multi-Gaussian fitting
# [7] = biological target: p50 (35-381, Enzo Scientific) 35-381 (UniProt P19838); test: native nESI-MS, monomer:dimer ratio, no DNA; settings: reference: p50 before phosphorylation; sites S328,S337
# [8] = biological target: Murine NF-κB p50 (39-364) S65D (murine) (UniProt P25799); test: native MS; native IM-MS of p50 (39-364) WT and Ser to Asp variants, no DNA; 100 mM NH4OAc, typically 5 μM; percentage peak areas of monomer and dimer by multi-Gaussian fitting
# [9] = biological target: the molecule itself; test: native MS; nano-ESI native MS of p50 (35-381) before and after in vitro phosphorylation with PKAc or Chk1; 100 mM NH4OAc, typically 5 μM; without and with the κB DNA oligomer; monomer and dimer charge states compared
# [10] = biological target: p50 S248D (Mus musculus, UniProt P25799 39-364, S246D); test: native MS titration; KD: 3 uM p50 with 0.2-6 uM DNA in 300 mM NH4OAc, 5 min, room temperature, 10 uL, pH not stated; native nESI-(IM-)MS; settings: protein: recombinant; tags: His6-MBP removed by 3C protease; chain copies: 2; blunt; strand is self-complementary
# [11] = biological target: p50 WT (Mus musculus, UniProt P25799 39-364); test: as above; settings: protein: recombinant; tags: His6-MBP removed by 3C protease; chain copies: 2; blunt; strand is self-complementary
# [12] = biological target: p50 S65D (Mus musculus, UniProt P25799 39-364, S63D); test: as above; settings: protein: recombinant; tags: His6-MBP removed by 3C protease; chain copies: 2; blunt; strand is self-complementary
# [13] = biological target: p50 S242D (Mus musculus, UniProt P25799 39-364, S240D); test: as above; settings: protein: recombinant; tags: His6-MBP removed by 3C protease; chain copies: 2; blunt; strand is self-complementary
# [14] = biological target: p50 S337D (Mus musculus, UniProt P25799 39-364, S335D); test: as above; settings: protein: recombinant; tags: His6-MBP removed by 3C protease; chain copies: 2; blunt; strand is self-complementary
# p50 S337D, sequence (P25799 39-364 S335D): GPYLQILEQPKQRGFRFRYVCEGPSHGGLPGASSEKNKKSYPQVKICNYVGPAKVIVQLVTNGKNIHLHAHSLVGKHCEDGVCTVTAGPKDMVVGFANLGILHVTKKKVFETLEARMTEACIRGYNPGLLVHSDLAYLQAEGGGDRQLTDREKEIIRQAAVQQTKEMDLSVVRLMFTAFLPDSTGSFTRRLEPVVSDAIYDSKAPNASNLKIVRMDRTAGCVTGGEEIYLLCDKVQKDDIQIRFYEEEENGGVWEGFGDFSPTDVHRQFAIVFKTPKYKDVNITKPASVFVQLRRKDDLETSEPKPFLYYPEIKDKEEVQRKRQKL
# p50 S242D, sequence (P25799 39-364 S240D): as the sequence (P25799 39-364 S335D) above, with S202D, D297S counted along it
# p50 S65D, sequence (P25799 39-364 S63D): as the sequence (P25799 39-364 S335D) above, with S25D, D297S counted along it
# p50 S248D, sequence (P25799 39-364 S246D): as the sequence (P25799 39-364 S335D) above, with S208D, D297S counted along it
# p50 WT, sequence (P25799 39-364): as the sequence (P25799 39-364 S335D) above, with D297S counted along it
molecule,measurement,setting,value
Murine NF-κB p50 (39-364) S242D (from UniProt P25799 39-364) (domain or fragment),percentage peak area of dimer,[1],87.6%
same,percentage peak area of monomer,[1],12.4%
same,stoichiometry N,[1],2
Murine NF-κB p50 (39-364) S337D (from UniProt P25799 39-364) (domain or fragment),fold increase in monomer relative to WT p50,[2],5 fold
same,percentage peak area of dimer,[3],74.8%
same,percentage peak area of monomer,[3],25.2%
same,stoichiometry N,[3],2
Murine NF-κB p50 (39-364) wild-type (from UniProt P25799 39-364) (domain or fragment),percentage peak area of dimer,[4],89.5%
same,percentage peak area of monomer,[4],10.5%
same,stoichiometry N,[4],2
"p50 (35-381, Enzo Scientific) 35-381 (from UniProt P19838) PKAc-phosphorylated p50 plus DNA",binding against the reference,[5],same
Murine NF-κB p50 (39-364) S248D (from UniProt P25799 39-364) (domain or fragment),percentage peak area of dimer,[6],94.2%
same,percentage peak area of monomer,[6],5.8%
same,stoichiometry N,[6],2
"p50 (35-381, Enzo Scientific) 35-381 (from UniProt P19838) PKAc-phosphorylated p50",binding against the reference,[7],weaker
Murine NF-κB p50 (39-364) S65D (from UniProt P25799 39-364) (domain or fragment),percentage peak area of dimer,[8],90.6%
same,percentage peak area of monomer,[8],9.4%
same,stoichiometry N,[8],2
"NF-κB p50 (35-381), non-phosphorylated (domain or fragment, UniProt P19838 35-381, looked up, NF-κB p50, the proteolytic product of p105 (NF-κB1), residues 35-381; also called recombinant p50 (35-381); source: bought: Enzo Scientific) MALPTDGPYLQILEQPKQRGFRFRYVCEGPSHGGLPGASSEKNKKSYPQVKICNYVGPAKVIVQLVTNGKNIHLHAHSLVGKHCEDGICTVTAGPKDMVVGFANLGILHVTKKKVFETLEARMTEACIRGYNPGLLVHPDLAYLQAEGGGDRQLGDREKELIRQAALQQTKEMDLSVVRLMFTAFLPDSTGSFTRRLEPVVSDAIYDSKAPNASNLKIVRMDRTAGCVTGGEEIYLLCDKVQKDDIQIRFYEEEENGGVWEGFGDFSPTDVHRQFAIVFKTPKYKDINITKPASVFVQLRRKSDLETSEPKPFLYYPEIKDKEEVQRKRQKLMPNFSDSFGGGSGAG",stoichiometry N,[9],2
kB DNA oligomer (KD determination) (dsDNA) DNA 1: CCCCCGGGGGCCCCCGGGGG DNA 2: CCCCCGGGGGCCCCCGGGGG,Kd,[10],112 ± 11 nM
same,Kd,[11],37 ± 7 nM
same,Kd,[12],140 ± 16 nM
same,Kd,[13],424 ± 78 nM
same,Kd,[14],111 ± 15 nM
